From paper PMC10844685

Target: pyruvate kinase isoform M2 (PKM2) (human (endogenous in MDA-MB-231 and Hs578T)) (UniProt P14618)
Assay: native gel or EMSA; total protein of MDA-MB-231 and Hs578T cells, not heat-denatured, non-denaturing loading buffer, native PAGE running buffer, western blot with anti-PKM2; cells with miR-29c-3p inhibitor, with or without TRIM9 knockdown

Sequence of pyruvate kinase isoform M2 (PKM2), P14618 1-531 (enzyme; other documents disagree on this pair) (P14618 whole entry, canonical isoform): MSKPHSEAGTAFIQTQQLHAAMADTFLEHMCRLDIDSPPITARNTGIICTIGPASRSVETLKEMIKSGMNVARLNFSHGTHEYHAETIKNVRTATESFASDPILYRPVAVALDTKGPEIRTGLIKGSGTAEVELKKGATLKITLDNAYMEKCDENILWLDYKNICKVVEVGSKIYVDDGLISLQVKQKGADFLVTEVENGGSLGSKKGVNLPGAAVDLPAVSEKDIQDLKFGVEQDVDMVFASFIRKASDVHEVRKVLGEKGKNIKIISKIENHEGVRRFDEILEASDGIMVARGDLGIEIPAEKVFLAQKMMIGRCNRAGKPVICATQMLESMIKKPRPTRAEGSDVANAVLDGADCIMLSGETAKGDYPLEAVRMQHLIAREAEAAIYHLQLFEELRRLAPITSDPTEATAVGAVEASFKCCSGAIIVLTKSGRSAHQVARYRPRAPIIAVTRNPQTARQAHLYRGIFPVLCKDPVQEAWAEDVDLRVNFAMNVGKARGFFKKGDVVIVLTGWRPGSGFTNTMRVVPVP

Q: With “pyruvate kinase isoform M2 (PKM2), P14618 1-531 (enzyme; other documents disagree on this pair)” as the substance, how does the stoichiometry N read?
A: Its stoichiometry N is 2.
